Experimental data taken from US20240117018A1.

Tests used:
Assay in all cases: cell-based or functional assay
[1] = molecular target: HIV-1 Env pseudovirus 3365.v2.c2 (HIV-1)
[2] = molecular target: HIV-1 Env pseudovirus 928-28 (HIV-1)
[3] = molecular target: Env of HIV-1 pseudovirus 3365.v2.c2 (HIV-1)
[4] = molecular target: HIV-16055-2.3 Env pseudovirus (HIV-1)
[5] = molecular target: ZM53M.PB12 Env pseudovirus (HIV-1)
[6] = molecular target: Q259.d2.17 Env pseudovirus (HIV-1)
[7] = molecular target: CNE53 Env pseudovirus (HIV-1)
[8] = molecular target: 6244_13_B5_4576 Env pseudovirus (HIV-1)
[9] = molecular target: HIV-0013095-2.11 Env pseudovirus (HIV-1)
[10] = molecular target: Q23.17 Env pseudovirus (HIV-1)
[11] = molecular target: 9004SS_A3_4 Env pseudovirus (HIV-1)
[12] = molecular target: TRO.11 Env pseudovirus (HIV-1)
[13] = molecular target: Ce2060_G9 Env pseudovirus (HIV-1)
[14] = molecular target: Ce0682_E4 Env pseudovirus (HIV-1)
[15] = molecular target: 1056_10_TA11_1826 Env pseudovirus (HIV-1)
[16] = molecular target: BF1266.431a Env pseudovirus (HIV-1)
[17] = molecular target: HIV-001428-2.42 Env pseudovirus (HIV-1)
[18] = molecular target: REJO4541.67 Env pseudovirus (HIV-1)
[19] = molecular target: CNE52 Env pseudovirus (HIV-1)
[20] = molecular target: SC05_8C11_2344 Env pseudovirus (HIV-1)
[21] = molecular target: SC422661.8 Env pseudovirus (HIV-1)
[22] = molecular target: Ce1172_H1 Env pseudovirus (HIV-1)
[23] = molecular target: 1012_11_TC21_3257 Env pseudovirus (HIV-1)
[24] = molecular target: Ce0393_C3 Env pseudovirus (HIV-1)
[25] = molecular target: Ce2010_F5 Env pseudovirus (HIV-1)
[26] = molecular target: ZM109F.PB4 Env pseudovirus (HIV-1)
[27] = molecular target: T257-31 Env pseudovirus (HIV-1)
[28] = molecular target: Du422.1 Env pseudovirus (HIV-1)
[29] = molecular target: WEAU_d15_410_787 Env pseudovirus (HIV-1)
[30] = molecular target: QH0692.42 Env pseudovirus (HIV-1)
[31] = molecular target: Ce1086_B2 Env pseudovirus (HIV-1)
[32] = molecular target: 191955_A11 Env pseudovirus (HIV-1)
[33] = molecular target: CNE19 Env pseudovirus (HIV-1)
[34] = molecular target: HIV-16845-2.22 Env pseudovirus (HIV-1)
[35] = molecular target: Q769.d22 Env pseudovirus (HIV-1)
[36] = molecular target: CAP210.2.00.E8 Env pseudovirus (HIV-1)
[37] = molecular target: THRO4156.18 Env pseudovirus (HIV-1)
[38] = molecular target: 1054_07_TC4_1499 Env pseudovirus (HIV-1)

Substance: VRC01 (antibody)
- IC50 (Titer in TZM.bl cells) [1]: 0.06 µg/mL
- IC80 (Titer in TZM.bl cells) [1]: 0.17 µg/mL
- IC50 (Titer in TZM.bl cells) [2]: 0.41 µg/mL
- IC80 (Titer in TZM.bl cells) [2]: 1.7 µg/mL

Substance: 10-1074 (antibody)
- IC50 [3]: 0.131 µg/mL
- IC80 [3]: 0.45 µg/mL

Substance: PGT121 (antibody)
- IC50 [4]: 0.153 µg/mL
- IC80 [4]: 4.8 µg/mL
- IC50 [5]: < 0.001 µg/mL
- IC80 [5]: 0.004 µg/mL
- IC50 [6]: 15.4 µg/mL
- IC80 [6]: > 50 µg/mL
- IC50 [7]: 0.007 µg/mL
- IC80 [7]: 0.024 µg/mL
- IC50 [8]: 0.061 µg/mL
- IC80 [8]: 0.347 µg/mL
- IC50 [9]: > 50 µg/mL
- IC80 [9]: > 50 µg/mL
- IC50 [10]: < 0.001 µg/mL
- IC80 [10]: 0.005 µg/mL
- IC50 [11]: < 0.001 µg/mL
- IC80 [11]: 0.003 µg/mL
- IC50 [12]: 0.005 µg/mL
- IC80 [12]: 0.025 µg/mL
- IC50 [13]: > 50 µg/mL
- IC80 [13]: > 50 µg/mL
- IC50 [14]: > 50 µg/mL
- IC80 [14]: > 50 µg/mL
- IC50 [15]: 0.004 µg/mL
- IC80 [15]: 0.081 µg/mL
- IC50 [16]: > 50 µg/mL
- IC80 [16]: > 50 µg/mL
- IC50 [17]: 0.014 µg/mL
- IC80 [17]: 0.051 µg/mL
- IC50 [18]: 4.77 µg/mL
- IC80 [18]: > 50 µg/mL
- IC50 [19]: 2.04 µg/mL
- IC80 [19]: 18.9 µg/mL
- IC50 [20]: 0.019 µg/mL
- IC80 [20]: 0.071 µg/mL
- IC50 [21]: 0.038 µg/mL
- IC80 [21]: 0.177 µg/mL
- IC80 [22]: 0.036 µg/mL
- IC50 [23]: 0.003 µg/mL
- IC80 [23]: 0.017 µg/mL
- IC50 [24]: > 50 µg/mL
- IC80 [24]: > 50 µg/mL
- IC50 [25]: > 50 µg/mL
- IC80 [25]: > 50 µg/mL
- IC50 [26]: 8.64 µg/mL
- IC80 [26]: > 50 µg/mL
- IC50 [27]: > 50 µg/mL
- IC80 [27]: > 50 µg/mL
- IC50 [28]: 0.039 µg/mL
- IC80 [28]: 0.143 µg/mL
- IC50 [29]: 0.026 µg/mL
- IC80 [29]: 0.077 µg/mL
- IC50 [30]: 0.302 µg/mL
- IC80 [30]: 2.31 µg/mL
- IC50 [31]: < 0.001 µg/mL
- IC80 [31]: < 0.001 µg/mL
- IC50 [32]: > 50 µg/mL
- IC80 [32]: > 50 µg/mL
- IC50 [33]: 0.008 µg/mL
- IC80 [33]: 0.105 µg/mL
- IC50 [34]: 3.97 µg/mL
- IC80 [34]: 44.6 µg/mL
- IC50 [35]: > 50 µg/mL
- IC80 [35]: > 50 µg/mL
- IC50 [36]: 26.3 µg/mL
- IC80 [36]: > 50 µg/mL
- IC50 [37]: > 50 µg/mL
- IC80 [37]: > 50 µg/mL
- IC50 [38]: 0.064 µg/mL
- IC80 [38]: 0.304 µg/mL
